The series in a line: label from the status in PepcDB records.
As to “MVLPSGLALPPLEYTVALLAGTLVVTALLYALEPPINQRTVVALTPWMALGGALHAFHQPPIEAYRPVVTPLFGAPAVYLTTFVTLGVVWVTLTLFSVRRGHSETISRNLGYIGIGLLTVLLVIAVVMALESGLLGLIWPTIAVIVATVVTAVTVLAVALWRTPVVVRMRYAAPTVVFAHMLDGVSTAVGADVIGITERTPIPARIMEFAGTLPTAPYLGKGWLFVFVKLLVAIGVVFLLDDYLEEDPVEASLLLAVVTAVGIGPATNNIVLFLFSPV”, the protein production result is on record as “failed”.
To “MVLPSSHRILVVDDNAVTRYSVRRVLEHHQFVVEEAGTGGEGLVRLAAEAFAAVVLDVNLPDMSGFDIVRTLRAEPRTALLPVVHVSAASIATGDMITGLDAGADAYLIHPVDPNVLVATLRTLLRARNAEEALRLSEARFREIFEHIGAPIAVVDAQLHTQEANAAFQRLIGSATPCEAINVPGLDQCATVQALTAALGRRERWSGTLSILRDGAVRETEWRVSPYREPDLGLLFVEDVTEQRLREREQRQELDTATSELAHQIAERQRTEIQLLQAQKMEALGKLTGGIAHDFNNLLTSIISGLDMIQLAVESNRIERVPRLAEIATGSAHRAAALTQRMLAFARKQSLDAQPFDVNARVRSLEDMLRRSIGENIALELQLAEAPLVAIADANQLENVVLNLVINARDALQGHGTIRIQSAPHTAYNDPELEDGDYVAVNVIDDGSGIDPAILSQVFEPFFTTKPIGEGTGLGLSMTYGFARQSGGTARITSTLGSGTTVALLLPRGLTVGEALPPPPPNAPRGRSQRILLVDDTDVVRMMVSEVLSDAGYHVIEAENADGALAQLRADAQIDMVVSDVGLPGMNGRDMADVARDLRPGLPILFITGYAENAATRQEFLAEGMALLPKPFSLNDLLNTVSRMLG” belongs “failed”; to “MVLWHKKDRKLGKHLRSVLSVSNNSPLSPAAFSGFKAVIKGIEKERIAGVGKTEGIKNEKTAGVGKTEGIEKERIAGVGKTEGIENTEGTEKAGEIKNNEKIKKAEETENILEIEKTFRNKKKQGVSKGDVDKENSTAFLYNTEAKKLTFHGNIYEILPLFLNVRNLYASLPFFEELQACAERLEKDPQDATALFQKAVLMYKARRFETALQLTAKVLKIIPDDHRVWYNRGVILSEMGRLEEAIAAYDRTIELEPAFEIAWDNKGVVLARLGRFEEALEIYDKILQKFPEYAEAWAGKGSIFLALDREEEALEAYSSALRIRPEYLEALTSTGSLLSRLGRYEESLKIYDKALQLVPKDPRLLAAKGFVLSEMGKQEEALENCNRALELQPGFVPALEIKVRILSEIGRQKNKTSQ”, “failed”.
In the case of “MVMLNTHVVECLQACGRCAAACDYCASSCLREGHGADMARCIALDLDCAAACRLCAAMMARESEFSTHMCTLCARICEVCGDECARHEPRHCQECATACHACASACRAMARPLEHHHHHH”, the protein production entry is “not failed”.
With “MVNDVEVTVTYTASDEDATVTYVDDDKGGAQVGDIVTVTGKTDDSTTYTVTIPDGYEYVGTDGGVVSSDGKTVTITFTADDSDNVVIHLKHGLEHHHHHH” the entry was “not failed”; with “MVNEVQGIGIPTSHTSVQTTPTKEISRTNTINTVDESKTTIDPDQYKPKLELLSERLNEEMKRIGTDINFSYNDTIKGLVVSVKDANGDKVIREIPSKEAVELMQRMRDVIGIIFDKRG”, “failed”.
To “MVNGSPHEKGCTYTALTEVAKTLNEEGIDTEIFWIGKKPLTGCTACKSCTKTGRCAFNDRANDFLDIAKGADGFIFGSPVHYASATGAITSFMDCVFYSDLLGGRQSFYLKPAATVISARRAGTTTTFDQLNKYFTLSEMPVISSRYWNMVHGAKPEDVKKDLEGLQIMRVLARNMAWFLKCKEAGMKAGVPLPVKEERMSTNFIRE” belongs “failed”; to “MVNHGYPLGRSLLSIAMAMLGALSLVFPLPLLTQDMVDSERSLPLLGDHPLEERLIDGMDEGIKKNYRGAIAIFTELILLDPSYADAYFNRGIARARIADYQGAITDHSQAITLNPQLAEAYKARGKIYWQLGEQAQAIADLEAALALFSDQENLVSQREAWEQLQTWHGNP”, “failed”; to “MVNTNLEELRTQVDQLNIDLLELISKRANLVQEIGKIKGTQGSLRFDPLREREMLNTILAANEGPFEDSTVQKLFKEIFKAGLELQEEDHSKALLVSRKNKKEDTIVTVKGLPIGNGEPVFVFGPCSVESYEQVAAVAESIKAKGLKLIRGGAFKPRTSPYDFQGLGLEGLKILKRVSDEYGLGVISEIVTPADIEVALDYVDVIQIGARNMQNFELLKAAGRVDKPILLKRGLSATIEEFIGAAEYIMSQGNGKIILCERGIRTYEKATRNTLDISAVPILKKETHLPVMVDVTHSTGRKDLLLPCAKAALAIEADGVMAEVHPDPAVALSDSAQQMDIPEFEEFWNAILASNLVPHKIK”, “not failed”.
Turning to “MVNVDGKREEDEEVIEVEGMGANKSARMLERLHVVHQYVARWVYSHGIPFNAIANDDLRRMLEVAGQFGPGVTPPSQYQLREPLLKEEVVRMKGLMEEQEDEWRVNGCSVTTDSWSDRKRRSIMNLCINCKEGTMFLSSKDCFDDSHTGEYIFAYVNEYCIKNLGGDHVVQVVTNNATNNITAAKLLKEVRPTIFWTFCATHTINLMVEGISKLAMSDEIVKMAKAFTIFIYAHHQTLSMMRSFTKRRDIVRPGIIGFASAFRTLKSLVEKEENLKVKRKKKKKLSKATTMVVL”, the protein production entry was “failed”.
With “MVPAPEAIRQALQERLLARLDHPDPLYRDLLQDYPRRGGKMLRGLLTVYSALAHGAPLEAGLEAATALELFQNWVLVHDDIEDGSEERRGRPALHRLHPMPLALNAGDAMHAEMWGLLAEGLARGLFPPEVLLEFHEVVRRTAYGQHLDLLWTLGGTFDLRPEDYFRMVAHKAAYYTAVAPLRLGALLAGKTPPAAYEEGGLRLGTAFQIVDDVLNLEGGEAYGKERAGDLYEGKRTLILLRFLEEAPPEERARALALLALPREAKPEAEVGWLLERLLASRALAWAKAEAKRLQAEGLALLEAAFQDLPGKEALDHLRGLLAALVERRA” the entry was “not failed”; with “MVPCWNHGNITRSKAEELLSRTGKDGSFLVRASESISRAYALCVLYRNCVYTYRILPNEDDKFTVQASEGVSMRFFTKLDQLIEFYKKENMGLVTHLQYPVPLEEEDTGDDPEEDTVESVVSPPELPPRNIPLTASSCEAKEVPFSNENPRATETSRPSLSETLFQRLQSMDTSGLPEEHLKAIQDYLSTQLAQDSEFVKTGSSSLPHLKKLTTLLCKELYGEVIRTLPSLESLQRLFDQQLSPGLRPRPQVKG”, “not failed”; with “MVPDYFSASEWTIIADVLGANSRHLFELYALKQSNHYQSLMGSKAGTFEDIVDAYLAYLQVAVVNPAMDKALLRLQRYATDVRKGSIPYEKLRFGASWRHPPQTEDPTQNSEWAKIQLMDFVQALVNTEFAVGILYTQRDPSFFRPISQGIKRCLVRWNVDEISVSCARTHVGLRFYREVENIKGRCFCCRQGLTFSKITLRRDVGGKNLQLQNGVIVTTDRSSLQRLKQKPDLIYGIWERPHGFNLRSVQENNEHNN”, “failed”.
With “MVPIPNGVSAKETHKLMGRGIAAFALLLLLQVSGSIVTQSGLAAPWWNAMFLWLLLTGIGCFSVASIRGRGLRWTSSILSLLVLAGLLLWPAAVPTTVPVDIGTPWLWAMINVGAAWSAFAFGTLPGCVYTVVIGSVFAVVRTLPQSGSASPSTAIQDASFSTVLGIIICLTIGILRQASERVDTAAENAINRYREAAAETALSNERTRVDGLLHDSVMSALLTASRSGSSLERLSSAELARSALARLGEHEIKQTDATTVSVSELASRIRFTVQDDGDTPTVTVTGEGSTSLLLSGQVVRALFEASTEAVANAVRHSNATRCEVRVLGQDPKGIARVVVSVKDNGDGFRQELVSDRRLGIKVSIIGRMRTIGGTADISSHPGKGTEVILTWAGEA” the entry was “failed”.
With “MVQDQIRYDILVQDALRGVIRKVLSEVAKAGLPGSHHFFITFLTNAPGVKISTRLKSRYPEQMTIVLQHQFRDLNVSETAFEVTLSFREVSEKLVIPFHSIQVFYDPVAAFEAAFDLPSNLNSKEGENLENIASTPVILSDTQKKEKKFPKEQISKTNKDSSNNDTKQSADVVSLDSFRKKLEHHHHHH” the entry was “not failed”; with “MVQEEKAMEAINDALRALRKRHLLEEGAHAPAISALSKPLISQGSEWKEKTEKLETELQQCYKAQSRLSEQLVIEVAESRTSKAILQEKELLINDLQKELTQRREDCTRLQEELEEKTKTVDVLIAENLEIRSQLEEMTSRVQKAETENKMLIDRWMLQKMQDAERLNEANDLYEEMLAKLKANGLETLARQQVDGIVRRNEDGTDHFVESTIPSTCANRIHAHEGGCGSIVFEYNSGTLFTGGQDRAVKMWDTNSGTLIKSLYGSLGNILDMAVTHDNKSVIAATSSNNLFVWDVSSGRVRHTLTGHTDKVCAVDVSKFSSRHVVSAAYDRTIKLWDLHKGYCTNTVLFTSNCNAICLSIDGLTVFSGHMDGNLRLWDIQTGKLLSEVAGHSSAVTSVSLSRNGNRILTSGRDNVHNVFDTRTLEICGTLRASGNRLASNWSRSCISPDDDYVAAGSADGSVHVWSLSKGNIVSILKEQTSPILCCSWSGIGKPLASADKNGYVCTWT”, “failed”; with “MVQLDQRVRFKSATSIISIEMWERFSFYGMQALLVYYLYFDVAAGGLGLDQTQATGLVGVYGALLYLCCWAGGWVSDRVLGAEKTLLGGAISVTIGHLVLAGLGGKIGLAIGLGCIAIGSGFVKTAAITVLGSRHGEQEGDAKADPAFQLFYLGINVGALLGPLLTGWLSSRYSFEMGFGAAAVLMIGGLGIYAALRKPMLQSFPLEVKKALLRAQNPAEKHVISTAFAAVAVLCGVLLYLLLTETVSADQLAGALLLVTIGAALWLIIQPLRHPQVSSEEKRKVLAFIPIFVCSTAFWAVQAQTYGVLAVYSQERVDRMVGDFEIPAAWSQSLNPFFILALSIPISLWFMRGSRAPRVKIGISIGVIIAGSGLLVLIPFVGMPLAPVWVLPLSVFLISLGELFIGPGGMAATAHHAPRIFATRFSALYFLTLAIGMSIAGNVSKFYDPTNHTSELRYFAVFGISIIVIGVGSLMVAKKVG”, “failed”.
As to “MVQSSVRRKGARPRDRQTGEPGWDDSLYDDNGEPVQDGRGSGRGGGSAQGGGDGDGPPDEAKGHSRHGGGRRRGGKGDGGGGRPRRRRRVLRWSATVLAVLILGTAGAGYLYYQHLNDNIKKDDLYLGDDKDRAAKPKANAAGQTPLNILLIGSDARDSAANQKLGGAKDTYGGTPRADVQMLLHLSADRSNMSVVSMPRDTLLEIPKCTDPKTSHTYAAITYPTMTNNSLGRGGPGCTVATWEKFTDIHIDHFMMVDFAGVVSMADAIGGVPVCVDANIYSHTSTGHGSGLKLKDGTTSIKGKQALQWLRTRYGFEDGSDIGRTKAQHQYMNSMVRQLRENATLSNPNKLRKLAETATNALTVDDGLGTVSKLYDLSKELKKVPTSRITMTTMPWVYSSDGNRVLPKPNDAAKVFRLLREDIALDGKDKKKSPAQKAVAPAHADDKIAVQVQNGTRTSALAPVGGRANAMAQLLVGKGFTGAAADSSTVLSEDKTVIRYPSADLKGDAQRVAKSLGVPLSSVEKSASVSGVTLIVGGDWRSGTTYKAAEDDDTTPASAKLDKGSDTGACMHVDPDYTWS”, the protein production result was “failed”.
To “MVQTRSQDDSKDKGKEVEGANPLEERMLRLESMMDAHSKEMMKHMAEMTMVMSRSTAHKLREEHSSGERSLPRSSTSTDDRVGYQDHRRDQGQDQDHRRDQQQNQDHRRDNRLDQVRYEPQQQHYGNLTRLGKIDLPRFDGTGIKEWLFKVEEFFGIDFTPADLKVKMVAIHFDSHAATWHHSFMQSGVGLEVLYDWPGYVRLLK” belongs “failed”; to “MVRDNGPGERLSIPPLSGLRKFRRTLSQKYDNHYCYLWMVSSALEYVRKFGIEKEPSRPFHAYAICPKDVPHRSPSIELSYISEVVWLNRIEDDLCYMNIRSLPVSPFSFSNIEKIGFQR”, “not failed”.

These data come from a protein production outcome set (Wang et al. 2014).
